Test: soluble on expression in E. coli; label from the status in PepcDB or PDB records

Soluble on expression in E. coli, not soluble:
MGSDKIHHHHHHMLERRHIARDISYSHSAETRPGRIMIRLMENTTGRLRLIKRAKGYDMEVASGRSFWDVIVERYGLSLDVVGGSLDAIPRDKPVILIANHPYGILDGLMMGHILSRTRCDFRMLAHQVFRKAEDLNKVILPIDFAETKEAMKVNLQTRKDALDYLGQGGAIGIFPGGTVSTASKPFAHPMDPGWRGFTARMVAKSDAVVVPLYFDGHTSRLFQIASHLHYTLRMGLLIKEFKKRVDTPVKVVIGEPIGRDVLDPLAKDSKAMMDFLRKATYELSPTPLKSYDYGFEFEEKHRA
MGSDKIHHHHHHMLESTKQFLKKYNINDRVLKLYETAMNDIQNQFKILDDIREFNQLKVLNAFQEERISEAHFTNSSGYGYGDIGRDSLDAVYARVFNTESALVRPHFVNGTHALGAALFGNLRPGNTMLSVCGEPYDTLHDVIGITENSNMGSLKEFGINYKQVDLKEDGKPNLEEIEKVLKEDESITLVHIQRSTGYGWRRALLIEDIKSIVDCVKNIRKDIICFVDNCYGEFMDTKEPTDVGADLIAGSLIKNIGGGIAPTGGYLAGTKDCIEKTSYRLTVPGIGGECGSTFGVVRSMYQGLFLAPHISMEALKGAILCSRIMELAGFEVMPKYDEKRSDIIQSIKFNDKDKLIEFCKGIQTGSPIDSFVSCEPWDMPGYTDQVIMAAGAFIQGSSIELSADAPIREPYIAYLQGGLTFDHAKIGILIALSRIVK
MGSDKIHHHHHHMLFANSLENQLQQWNEVISKQPNNPNAYIRRGMVQFQLAKIEESIDDFDTAEKLDNRIKPYLWQRGLSYYYADRFAEGAQQFEIDLTVNSQDVEETVWRYLCMARLVGVTEARNNLLTVKNDPRLIMRSVYDLFAGHCTPDNVFNIGQTEGNKGKFYSHLYLGLYYEAENNLPLAQEYIVKAADKYKLDDYMWYLAQVHKKLRGWM
MGSDKIHHHHHHMLGASQPYDLGPGIRRGSRGKGGAMTQIPNHDPLSDWGLPGWIYTSERFFKEEQDKVFRPSWQIVCHLNDIPKAGDFHTFDFIGESLVVVRSKDGGVRAFANVCRHRGARLLDGPVGRCGGRIVCPYHAWTYDLEGRLIGVPMRDDYPALDMAKEGLATIEVEVWRGFVFVRLEGDGPSVATMMAPYEDEVAHYRFEELQPFGRVTLRPRAVNWKNISDNYSDGLHIPVAHPGLTRLFGKGYGVEAEAYVDKMWGQLIDEPSESPSERLYQDILPDVAHLPGDRKRLWTYFKLWPNFAFDIYPDQVDFMQFIPISAEQTMIREIAYALPDDRREMKAARYLNWRINRQVNTEDTELVARVQQGMASRTFTAGPLATSEVSLRSFGRKMRALIPESRMPRPPEGW
MGSDKIHHHHHHMLGTLKKLRSRLDEADLVQYNLVVGDQELPLNPLIGQTLSLTHTGNIFCCNCGRKTKKSYSQGHCFPCMQKLASCDMCIMKPETCHFDQGTCREPQWAQSHCFVPHYVYLSNTSGIKVGITRNNQLPTRWIDQGATQGLAIFKVSTRQLSGLIEVELAKLVKDKTNWQAMLKSNAADIDLNAKAQELIPHIEHRLNELAMEKGEYKIERLTETIQQINYPMTAFPKKISSHNFDKVPEVTGVLLGIKGQYLIFDTGVINIRKFSAYEVTVTTN
MGSDKIHHHHHHMLHNTNQPQISRQMNELEAQCGGRLFNRTGRGVELTDLGQHLLPKIRSWLNVTDQLNNEILHSTDTPIGTVRIASLPSTAHPLLSTLYKVLQEKYPLIKLSVREGQGVHLEKWLEDGSVDLAILYRFNPTPKQGDIYLTQADTYLVGCEGDALTQASEVDFKAINQLPLVTFCRPSNWRNFLDHMAYENGVELNIVFEADSISLQTHLVSESRMYTMLGPQALKKASQYTSIQAAKIINPALKRYISLSISKHGYLTPACKAVMEEIRNLADLL
MGSDKIHHHHHHMLHYTKEDLLELGAEITTREIYQQPDVWREAFEFYQAKREEIAAFLQEIADKHDYIKVILTGAGTSAYVGDTLLPYFKEVYDERKWNFNAIATTDIVANPATYLKKDVATVLVSFARSGNSPESLATVDLAKSLVDELYQVTITCAADGKLALQAHGDDRNLLLLQPAVSNDAGFAMTSSFTSMMLTTLLVFDPTEFAVKSERFEVVSSLARKVLDKAEDVKELVDLDFNRVIYLGAGPFFGLAHEAQLKILELTAGQVATMYESPVGFRHGPKSLINDNTVVLVFGTTTDYTRKYDLDLVREVAGDQIARRVVLLSDQAFGLENVKEVALGCGGVLNDIYRVFPYIVYAQLFALLTSLKVENKPDTPSPTGTVNRVVQGVIIHEYQK
MGSDKIHHHHHHMLIEEIMKRNVVTIHEQTTIKEAYQTMILEKFRHLPVITKSKDVIGIVTDQDIRDASPSIFHQDEHQEDLQKPVSSIMTKDVITVHPLNSVAETARLLYENRISCLPVTEGEQLVGIVTDTDVLHTLVELMGAHQPSSQIYVRVENKAGQLADVAAIMKQRQMNIASVLVYPHREDERYKILAFRIQSMDPRGTISDLQSKGYHVLWPNIPGIAT
MGSDKIHHHHHHMLIIKLSAMGDSLCLFPTVRQLALAFPGATIDWLTSNRSNPALFAELPFIRTIFVTPPSLVRALTYLGGWLFRARRYDLTIDYDQYYCISELIAGMSACSAGFRTSLKGTTFSLSVEYDPLLNEKAMFRKLTERVFATYGVSIPDYRAELPELIERFVPSAQLQTLRARLKAQGKPIVGIYPGSGANATFRRWGVGNYVALIERYKDRYAFVLLGGPDERDLQADLKDIDGVFNLIDSMSFKEVAWFLKHTIDLLVGNDGGLLHVAESQAVATVGIFGPALYRKWGSSLERSIGVEKELPCRPCLKNYLGTVPSACCLGTTACLSAISTDDVAQAMHRAVHRIHVVPIAHA
MGSDKIHHHHHHMLKIDNLTKTLENKKVISGISFSLKPSQIVGLIGRNGVGKTTLFRLISGEYVPDQGRVTSDESADARSEIFYLDSPDNFTNAFTANQLARIFKVSYPQLDIDWFKNLLKTNNLSLNKKLSGMSKGQRGLILAISAITSKSKYIFLDEPLDGLDLIIRDQVKQMLITAVSNSDTSVMIASHNLEELDFLADRIILLKNGKIEKDYLPGEELKTANVAKLQMVIEGELPKVVSECGHILEKRGHLYVVLFKDYNSKVASRIKRTKAQYIEQLPVNSDDIFRATFEEDYRLRQSAGKRTNK
MGSDKIHHHHHHMLKSGGSFFYQVAQGYAMTKQPKTIQEMMTLLVEERGLDITGFSDFSTVLLDCNYYRLSGYFRAFQIDPSHGNNRFRNGTHIKDFMIPYLMDEQLRLLILRGTSSLEQTLRAHFAYYLAQNGGAYSYTELSSYKTIKYSDGTEAREVLIENIHKWLERSSEVCIRHYRNNNEPIPIWAAVEAMPFDTLSKMISLHTNTTAVDELNQSLSLGKNRQRAAQIIHSMVYLRNICSHHCRLWNREIVLPPPVLDATAERYGSYAYEDRSVWKSLIVLMDLIDGIKKNSTYSSMLIKQAESNDNYFWGLCHPKRWH
MGSDKIHHHHHHMLLSMQGICKSFNGIPALRAASLEVGEAEVMALVGQNGAGKSTLIKILTGAYRRDEGAVVFAGEGVSFSMPAESQARGIATIYQEINLAPQRSVAENIYLSREPRRFGLIDRRAMRDGAAAVLRAFNLEIDVDQPVAGFSAATRQMVAIARAVTQKARLVIMDEPTSSLDEREVGILFDTIRTLKRGGVSVVFIGHRLEELYRICDRVTIMRDGKTVATAAMADMPKLALVRHMLGKELAAFEAIAKDADEGAQRPVRLSVRNAGAGVRVRDVSLTVREGEISGLAGLLGSGRTETANLIFGADRLQRGEIRYNGEARAYRQPADAIADGIGLVAEDRKVDGIIPDMSIRENMTLALLPKLARAGIVDRARQDEIVERYITALAIKCTSPDQPIKELSGGNQQKVLLGRWLCTDPKLLIVDEPTRGIDIGAKSEILRLLRRLADEGLGVLMISSELEELLAAADRVTVLSDGTSVAVLPRKELSEAALFAAMAHQVE
MGSDKIHHHHHHMLMDSLQEIICEKRTYTRLYHSHKHAYSQFLFPLEGSIDLETEGRQVKLNPDHFLYIPPQCEHRFRSIGRNECLVLDVPLHAMKIDEYRAGSGIEAALDPFWSSIRYLLTEEAKAGTANSLHMLVQYIKEKLQSHSYASIAYIHSHLFERLTIKKLAEIEHYHPAYYSSWFKKQTGKSPQNYIADLRLEEAKRMLMERNETLTVVSEALGFQNLSSFTRWFTKSTGMPPRLYRNTLYSDKK
